The target in this experiment is human C3d (human, UniProt P01024 1002-1303). In words: SPR. Background: SPR reads the build-up and loss of mass on a sensor chip optically.
human C3d, sequence (P01024 1002-1303): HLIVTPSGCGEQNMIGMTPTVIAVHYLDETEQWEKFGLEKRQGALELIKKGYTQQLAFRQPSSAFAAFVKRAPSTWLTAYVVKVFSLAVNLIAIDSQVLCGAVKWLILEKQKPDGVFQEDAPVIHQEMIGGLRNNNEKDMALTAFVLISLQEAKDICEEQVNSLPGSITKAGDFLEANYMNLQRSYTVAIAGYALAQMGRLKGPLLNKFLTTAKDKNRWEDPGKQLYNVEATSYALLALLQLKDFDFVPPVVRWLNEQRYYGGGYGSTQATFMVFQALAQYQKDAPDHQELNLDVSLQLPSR

B1: (D39)PspCN:FH complex (plasma-derived FH) (complex)
chain 1: EDCNELPPRRNTEILTGSWSDQTYPEGTQAIYKCRPGYRSLGNVIMVCRKGEWVALNPLRKCQKRPCGHPGDTPFGTFTLTGGNVFEYGVKAVYTCNEGYQLLGEINYRECDTDGWTNDIPICEVVKCLPVTAPENGKIVSSAMEPDREYHFGQAVRFVCNSGYKIEGDEEMHCSDDGFWSKEKPKCVEISCKSPDVINGSPISQKIIYKENERFQYKCNMGYEYSERGDAVCTESGWRPLPSCEEKSCDNPYIPNGDYSPLRIKHRTGDEITYQCRNGFYPATRGNTAKCTSTGWIPAPRCTLKPCDYPDIKHGGLYHENMRRPYFPVAVGKYYSYYCDEHFETPSGSYWDHIHCTQDGWSPAVPCLRKCYFPYLENGYNQNYGRKFVQGKSIDVACHPGYALPKAQTTVTCMENGWSPTPRCIRVKTCSKSSIDIENGFISESQYTYALKEKAKYQCKLGYVTADGETSGSITCGKDGWSAQPTCIKSCDIPVFMNARTKNDFTWFKLNDTLDYECHDGYESNTGSTTGSIVCGYNGWSDLPICYERECELPKIDVHLVPDRKKDQYKVGEVLKFSCKPGFTIVGPNSVQCYHFGLSPDLPICKEQVQSCGPPPELLNGNVKEKTKEEYGHSEVVEYYCNPRFLMKGPNKIQCVDGEWTTLPVCIVEESTCGDIPELEHGWAQLSSPPYYYGDSVEFNCSESFTMIGHRSITCIHGVWTQLPQCVAIDKLKKCKSSNLIILEEHLKNKKEFDHNSNIRYRCRGKEGWIHTVCINGRWDPEVNCSMAQIQLCPPPPQIPNSHNMTTTLNYRDGEKVSVLCQENYLIQEGEEITCKDGRWQSIPLCVEKIPCSQPPQIEHGTINSSRSSQESYAHGTKLSYTCEGGFRISEENETTCYMGKWSSPPQCEGLPCKSPPEISHGVVAHMSDSYQYGEEVTYKCFEGFGIDGPAIAKCLGEKWSHPPSCIKTDCLSLPSFENAIPMGEKKDVYKAGEQVTYTCATYYKMDGASNVTCINSRWTGRPTCRDTSCVNPPTVQNAYIVSRQMSKYPSGERVRYQCRSPYEMFGDEEVMCLNGNWTEPPQCKDSTGKCGPPPPIDNGDITSFPLSVYAPASSVEYQCQNLYQLEGNKRITCRNGQWSEPPKCLHPCVISREIMENYNIALRWTAKQKLYSRTGESVEFVCKRGYRLSSRSHTLRTTCWDGKLEYPTCAKR
chain 2: ATENEGSTQAATSSNMAKTEHRKAAKQVVDEYIEKMLREIQLDRRKHTQNVALNIKLSAIKTKYLRELNVLEEKSKDELPSEIKAKLDAAFEKFKKDTLKPGEK
B1 registered a Kd of 2000 nM.

What is called Kd is the free concentration of one partner at which half of the binding sites on the other are occupied at equilibrium, for simple one-to-one binding. Lower therefore signals higher affinity.

These data come from paper PMC4635569 (2015).
